Measured values taken from US20200182883A1 (UNIVERSITY OF MARYLAND BALTIMORE, published 2020).

Tests used:
[1] = target: T1, YU2 gp120 core, from which V1, V2, and V3 have been deleted (HIV-1 YU2, UniProt P35961 82-479); assay: ELISA, background-subtracted OD, mAb titrated
T1 construct: domain: gp120 core; also called YU2 core; YU2-core

[2] = target: T1, YU2 gp120 core, from which V1, V2, and …; assay: ELISA, graded
[3] = target: T2, HIV-1 IIIB p24 recombinant protein (HIV-1 IIIB); assay: SPR, mAb immobilized on a Protein A chip, 0-200 nM p24, room temperature
T2 construct: domain: p24
Experimental: Surface Plasmon Resonance (SPR) analysis of anti-p24 mAbs. […] Surface Plasmon Resonance (SPR) analysis of each mAb binding to p24. Sensorgrams were obtained at room temperature for each mAb immobilized on a Protein A chip with 0-200 nM concentrations of p24 passed over the chip.

B1: N60P23 (antibody, V domains shown)
VH: HVQLVQSGTEVKRPGASVRISCASSGYTFSNYFIHWVRQAPGRGLEWMGWMNPLRGAVNYSGKFQGRVTMTRDIYTETSFMVLSGLRSDDTAIYFCARGRDGYEYGFNPWGQGTLVTVSS
VL: CYVQTQSPSTLYASVGDRVTITCRSSQSGWKAWYQQKPGKAPKLLIYKSSTLESGVPSRFSGSDSGTEFNLTITSLQPDDFATYFCQHFETFGQGTRVEVR
notes: they may be variable regions only; Kappa light chain
- binding result [1]: no binding (tested: 0.8 ug/ml)

B2: N60P25.1 (antibody, V domains shown)
VH: QIELVQSGTEVKRPGASVRISCASSGYRFTNYFIHWVRQAPGRGLEWMGWMNPLHGGVNYSGRFQGRVTMTRDIYTETSFMVLSGLTSDDTAIYFCTRGRDGYDDGFHPWGQGTLVTVSA
VL: YVQSQSPSTLYASVGDKITITCRSSQSGWKAWYQQKPGKAPKLLIYKSSILETGVPSRFSGSDSGTEFTLTISSLQPDDFATYYCQHFETFGQGTRVQVR
notes: Kappa light chain; also called N6025.1
- binding result [2]: no binding

B3: N60P53 (antibody, V domains shown)
VH: QVQLQESGPGLVKPSQTLSLTCTVSGGSINSGGYFWTWIRQEPGKGLEWIGHVHSSGTTSYNPSLKSRLTISLDSSKNQFSLNLTSVTAADTAVYYCASQGRLGIGDYWGQGALVVVSS
VL: DIQMTQSPSSLSASVGDRVTITCRASQGVSHLVNWYQQKPGKAPKPLIYTVSSLHSGVPSRISGSGSETEFTLTISSLQPEDFATYYCQQTYSSPRTFGQGTRVDLK
notes: Anti-p24 mAb; they may be variable regions only; captured on Protein A chip in SPR; also called N6053
- Kd [3]: 39.9 pM
- koff [3]: 3.81e-05 s⁻¹
- kon [3]: 954000 M⁻¹ s⁻¹

B4: N60P2.1 (antibody, V domains shown)
VH: RAQLVQSGPEVKKPGASVRISCAASGYTFVDSFIHWLRQAPGQGLEWIGWINPLRGGVNYSGRFQGRVAMTRNTFTETVYMDINGLTPDDTATYFCVRAPDSYDRGYDAWGQGTRVIVTS
VL: YIQVTQSPSTLSASIGDTVTITCRASEGWLAWYQQKPGKAPKLIIYKTSTLERGVPSRFSGSVSGADFTLTISGLQSDDFATYYCQKFEFFGQGTVVDMK
notes: they may be variable regions only
- binding result [2]: no binding
